Reference: the supplement of paper PMC7125110
± gives the standard error. This sample holds only a part of the variants without activity.

B1: glmS ribozyme (parent)
chain: AUAAAAGCGCCAGAACUACAGAAAUGUAGUUGACGAGGAGGAGGUUUAUCGAAUUUUCGGCGGAUGCCUCCAAA

Key:
Conditions in all cases: with glucosamine-6-phosphate
glucosamine-6-phosphate [1] = variants of: B1; experiment: self-cleavage kobs at 160 uM GlcN6P; higher = faster cleavage; RNA array
Method in brief: (§1)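 Tiles of sequenced MiSeq chips were imaged over ~14 h at 37 °C. On them, barcoded ribozyme variants had been transcribed in situ by E. coli RNA polymerase and were tracked via a hybridised Cy3 probe while glucosamine-6-phosphate (40 μM to 10 mM) in HEPES/KCl/Mg(OAc)2 buffer flowed in. Per-tile medians, normalised to baseline and to non-cleaving reference variants, were fit to one- or two-exponential decays for kobs, and weighted Michaelis–Menten fits gave kcat and KM.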

glucosamine-6-phosphate [2] = variants of: B1; experiment: self-cleavage kobs at 2500 uM GlcN6P; higher = faster cleavage; RNA array
Method in brief: as §1

glucosamine-6-phosphate [3] = variants of: B1; experiment: self-cleavage kobs at 640 uM GlcN6P; higher = faster cleavage; RNA array
Method in brief: as §1

glucosamine-6-phosphate [4] = variants of: B1; experiment: self-cleavage kobs at 10000 uM GlcN6P; higher = faster cleavage; RNA array
Method in brief: as §1

Variant | self-cleavage kobs at 160 uM GlcN6P (glucosamine-6-phosphate [1]) [s⁻¹] | self-cleavage kobs at 2500 uM GlcN6P (glucosamine-6-phosphate [2]) [s⁻¹] | self-cleavage kobs at 640 uM GlcN6P (glucosamine-6-phosphate [3]) [s⁻¹] | self-cleavage kobs at 10000 uM GlcN6P (glucosamine-6-phosphate [4]) [s⁻¹]
A14C A36U G38C A39G | < 1e-05 | < 1e-05 |  | 
C10U C16U G38C | < 1e-05 | < 1e-05 | < 1e-05 | 
G13C G44C C61A | < 1e-05 |  |  | 
G9U A15U A39U U69C | < 1e-05 |  | < 1e-05 | 
A15C G32U G35U | < 1e-05 | < 1e-05 |  | 
C10A U30A G35U G43U | < 1e-05 |  |  | 
C11U A15G G44U G60U | < 1e-05 | < 1e-05 | < 1e-05 | 
G9U A42C | < 1e-05 | < 1e-05 |  | 
A12U A14U A15U | 0.000236 ± 5.9e-05 | 0.00219 ± 0.00059 | 0.00051 ± 0.00013 | 
G13A A53C C67G | < 1e-05 |  | < 1e-05 | < 1e-05
A12U A42U G44U C67G | 3.69e-05 ± 1.5e-05 | 0.000326 ± 9.4e-05 | 0.000122 ± 3.2e-05 | 
C10G A36C | < 1e-05 | < 1e-05 | < 1e-05 | 
A12U G38C A53G U55C C67G | < 1e-05 | < 1e-05 | < 1e-05 | 
C11U A14U A64C | < 1e-05 |  |  | 
A14U A39C A52C | < 1e-05 |  | < 1e-05 | 
G13A G41U U49A G51C | < 1e-05 |  |  | 
G13A G35C C71U | < 1e-05 |  | < 1e-05 | 
G13C U45G U56A G63A U65C | < 1e-05 | < 1e-05 | < 1e-05 | 
A14U U30A C50G C58G | 0.000116 ± 2.1e-05 | 0.000131 ± 2.3e-05 | 9.41e-05 ± 1.7e-05 | 
C10G A53C | < 1e-05 | < 1e-05 | < 1e-05 | < 1e-05
C11A A14C G35A C50G C71G | 0.000211 ± 3.9e-05 | 0.000131 ± 4.3e-05 | 0.000433 ± 0.00014 | 
C10G A48C G51U U65C | < 1e-05 | < 1e-05 | < 1e-05 | 
G13C C58U G59U | < 1e-05 |  |  | 
A15G A36U C50A G60A | < 1e-05 |  | < 1e-05 | 
C10A U45C | < 1e-05 | < 1e-05 | < 1e-05 | < 1e-05
G9U C34G G40C A48U C61U | < 1e-05 |  |  | 

Variant | self-cleavage kobs at 160 uM GlcN6P (glucosamine-6-phosphate [1]) [s⁻¹] | self-cleavage kobs at 2500 uM GlcN6P (glucosamine-6-phosphate [2]) [s⁻¹] | self-cleavage kobs at 640 uM GlcN6P (glucosamine-6-phosphate [3]) [s⁻¹] | self-cleavage kobs at 10000 uM GlcN6P (glucosamine-6-phosphate [4]) [s⁻¹]
C10A G41U C68G | < 1e-05 | < 1e-05 |  | 
G13U A36G G43A G66C C70A | < 1e-05 | < 1e-05 | < 1e-05 | 
G13U A33G G40U | < 1e-05 |  |  | 
C10U A33C G43U G44A C67G | < 1e-05 | < 1e-05 | < 1e-05 | 
C11A G38C A42C | < 1e-05 | < 1e-05 |  | 
C10U A12U G40U A48G G60A | 7.46e-05 ± 2.7e-05 |  |  | 
A14G A15G U55G A64G | 0.00524 ± 0.0017 |  | 0.00775 ± 0.002 | 
A12C C34U | < 1e-05 | < 1e-05 |  | < 1e-05
G13A A33G A36U G40U U55A | < 1e-05 | < 1e-05 | < 1e-05 | 
A15G A33U G40U C67G | < 1e-05 | < 1e-05 |  | 
G9U G13U G32A U47A G62A | < 1e-05 |  |  | 
G13U A15U A36C A42G G59C C67G | < 1e-05 |  |  | 
G9U C16U U57G C68U | < 1e-05 |  | < 1e-05 | 
C10G C11G G37C A53G | < 1e-05 | < 1e-05 |  | 
A12C G35U G41U | < 1e-05 |  | < 1e-05 | 
C10A G35C G51U | < 1e-05 | < 1e-05 | < 1e-05 | 
G9U C11U G38C | < 1e-05 | < 1e-05 | < 1e-05 | 
C10U G44U C61A | < 1e-05 | < 1e-05 | < 1e-05 | 
A12U C50G C70G | 0.000311 ± 7.3e-05 | 0.000205 ± 7.3e-05 | 0.000429 ± 8.2e-05 | 0.000273 ± 6e-05
G13C A42G G51C U56C C67A | < 1e-05 | < 1e-05 |  | 
C11U G44U G60A C61G | < 1e-05 | < 1e-05 | < 1e-05 | < 1e-05
G9U C58U | < 1e-05 | < 1e-05 | < 1e-05 | 
G9U C10U C67G | < 1e-05 | < 1e-05 | < 1e-05 | 
G13C C16G G38A | < 1e-05 |  |  | 
G13U C50G G59A | 0.0002 ± 7.6e-05 |  |  | 
A14U U47G C68G | 7.2e-05 ± 2.9e-05 | 5.08e-05 ± 2.3e-05 | 0.000125 ± 2.8e-05 | 
